The target of assay [1] is T1, human STEAP-1 (human, UniProt Q9UHE8 1-339).
T1 construct: also called Six Transmembrane Epithelial Antigen of the Prostate
Briefly: Scatchard analysis on 293 STEAP-1 NT LB50 cells.

In assay [2] the target is T1, human STEAP-1. Briefly: Scatchard analysis; the sentence names no reference (the preceding sentences compare with chimeric 120 IgG). From the text: (§1) IgG Production and Affinity Determination -IgG was purified with Protein G affinity chromatography.
Although the 120-graft IgG bound specifically to the STEAP-1 expressing cells, the FACS signal observed for the 120-graft IgG was smaller than that observed for the chimeric 120 IgG indicating a loss in binding affinity. Phage displaying the 120-graft Fab also generated a FACS signal that was only observed on STEAP-1 expressing cells. This shift was less than that observed for the chimeric 120 IgG.

The target in assay [3] is T1, human STEAP-1. Briefly: Scatchard analysis on LNCaP-BR cells (endogenous STEAP-1), average. The source says:
(§2) JgG was purified with Protein G affinity chromatography.

For assay [4], the target named is T1, human STEAP-1. Briefly: Scatchard analysis on LNCaP.BR cells (endogenous STEAP-1), Assay 733; displacement plot 25E and Scatchard plot 25F.
Description: as §2

The target of assay [5] is T1, human STEAP-1. Briefly: Scatchard analysis on 293-LB50 cells (exogenous STEAP-1), average.
Description: as §2

In assay [6] the target is T1, human STEAP-1. In words: Scatchard analysis on LNCaP.BR cells (endogenous STEAP-1), Assay 734; displacement plot 25G and Scatchard plot 25H.
Description: as §2

Assay [7] addresses T1, human STEAP-1. Briefly: Scatchard analysis on 293.LB50 cells (exogenous STEAP-1), Assay 736; displacement plot 26G and Scatchard plot 26H.
Description: as §2

The target of assay [8] is T1, human STEAP-1. Briefly: Scatchard analysis on 293.LB50 cells (exogenous STEAP-1), Assay 735; displacement plot 26E and Scatchard plot 26F.
Description: as §2

Assay [9] concerns the target T2, mouse STEAP-1 (mouse, UniProt Q9CWR7 1-339).
T2 construct: The cells carrying mouse STEAP-1 are not described in the text; also called STEAP-1 from mouse
Briefly: FACS on cells expressing mouse STEAP-1 (panel title MOUSE, cell line not named), PE detection; key in Figure 7A: hu 24-67.

Assay [10] has as its target T1, human STEAP-1. In words: Scatchard analysis on 293.LB50 cells (exogenous STEAP-1).
Description: as §1
When expressed as an IgG, 120.v24 produced a similar FACS shift to the chimeric 120 antibody at all concentrations tested.

Assay [11] deals with T1, human STEAP-1. Briefly: Scatchard analysis on 293-LB50 and LNCaP.BR cells.
Description: as §2

Assay [12] deals with T3, cynomolgus monkey STEAP-1 (cynomolgus monkey, UniProt Q9UHE8 1-339 (human entry)).
T3 construct: The cells carrying cyno STEAP-1 are not described; also called cyno STEAP-1
T3 sequence (Q9UHE8 other isoform, or with tags, fused parts or gaps): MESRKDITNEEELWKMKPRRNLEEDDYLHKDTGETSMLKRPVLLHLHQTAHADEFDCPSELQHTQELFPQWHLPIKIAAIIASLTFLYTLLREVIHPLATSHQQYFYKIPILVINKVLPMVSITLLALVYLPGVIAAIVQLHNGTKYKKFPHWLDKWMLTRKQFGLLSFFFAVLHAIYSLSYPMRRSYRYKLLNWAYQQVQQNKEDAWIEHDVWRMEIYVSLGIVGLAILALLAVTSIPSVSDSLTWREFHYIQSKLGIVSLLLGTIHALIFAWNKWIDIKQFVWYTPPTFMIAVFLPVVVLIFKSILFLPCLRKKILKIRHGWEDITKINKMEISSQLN
Briefly: FACS on cells expressing cynomolgus STEAP-1 (panel title CYNO, cell line not named), PE detection.

In assay [13] the target is T1, human STEAP-1. Briefly: Scatchard analysis on 293.LB50 cells (exogenous STEAP-1), Assay 737; displacement plot 26A and Scatchard plot 26B.
Description: as §2

The target in assay [14] is T1, human STEAP-1. Briefly: Scatchard analysis on LNCaP.BR cells (endogenous STEAP-1), Assay 740; displacement plot 25C and Scatchard plot 25D.
Description: as §2

The target of assay [15] is T3, cynomolgus monkey STEAP-1. In words: Scatchard analysis on 293 cells transiently expressing cyno Steap1; side note: Same Affinity for human & cyno.
The target in assay [16] is T1, human STEAP-1. In words: Scatchard analysis on LNCaP.BR cells (endogenous STEAP-1), Assay 739; displacement plot 25A and Scatchard plot 25B.
Description: as §2

For assay [17], the target named is T1, human STEAP-1. Briefly: Scatchard analysis on 293.LB50 cells (exogenous STEAP-1), Assay 738; displacement plot 26C and Scatchard plot 26D.
Description: as §2

For assay [18], the target named is T1, human STEAP-1. Briefly: Scatchard analysis on 293 cells transiently expressing human Steap1.
Description: as §2

Assay [19] addresses T1, human STEAP-1. Briefly: Scatchard analysis on PC3-PS5.4 cells (exogenous STEAP-1).
Assay [20] concerns the target T2, mouse STEAP-1. Briefly: FACS on cells expressing mouse STEAP-1 (panel title MOUSE, cell line not named), PE detection; key in Figure 7A: 120.
The target in assay [21] is T1, human STEAP-1. Briefly: Scatchard analysis on LNCaP-BR cells (endogenous STEAP-1).
The target of assay [22] is T2, mouse STEAP-1. Briefly: FACS on cells expressing mouse STEAP-1 (panel title MOUSE, cell line not named), PE detection; key in Figure 7A: 120 chi.

T2 sequence (Q9CWR7 other isoform, or with tags, fused parts or gaps): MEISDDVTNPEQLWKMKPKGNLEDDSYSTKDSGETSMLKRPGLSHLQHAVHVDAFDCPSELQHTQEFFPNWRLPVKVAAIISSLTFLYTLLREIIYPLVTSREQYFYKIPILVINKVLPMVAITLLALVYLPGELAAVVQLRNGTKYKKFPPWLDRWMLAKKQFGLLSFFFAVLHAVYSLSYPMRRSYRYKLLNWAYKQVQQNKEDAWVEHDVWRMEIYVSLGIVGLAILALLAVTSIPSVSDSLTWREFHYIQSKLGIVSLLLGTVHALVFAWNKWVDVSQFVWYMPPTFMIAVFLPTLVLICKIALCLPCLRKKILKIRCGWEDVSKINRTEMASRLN
T1 sequence (Q9UHE8 other isoform, or with tags, fused parts or gaps): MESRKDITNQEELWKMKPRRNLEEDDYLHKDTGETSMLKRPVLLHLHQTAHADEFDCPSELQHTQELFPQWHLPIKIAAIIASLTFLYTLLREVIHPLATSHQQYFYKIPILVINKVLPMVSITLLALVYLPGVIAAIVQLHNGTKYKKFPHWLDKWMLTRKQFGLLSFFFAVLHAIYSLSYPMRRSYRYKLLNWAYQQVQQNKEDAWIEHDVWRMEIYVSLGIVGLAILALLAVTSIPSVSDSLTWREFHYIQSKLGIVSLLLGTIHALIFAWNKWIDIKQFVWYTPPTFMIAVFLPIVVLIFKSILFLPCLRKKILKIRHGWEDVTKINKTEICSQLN

B1: 120 graft IgG (antibody, V domains shown)
VH: EVQLVESGGGLVQPGGSLRLSCAASGYSITSDYAWNWVRQAPGKGLEWVGYISNSGSTSYNPSLKSRFTISRDNSKNTLYLQMNSLRAEDTAVYYCARERNYDYDDYYYAMDYWGQGTLVTVSS
VL: DIQMTQSPSSLSASVGDRVTITCKSSQSLLYRSNQKNYLAWYQQKPGKAPKLLIYWASTRESGVPSRFSGSGSGTDFTLTISSLQPEDFATYYCQQYYNYPRTFGQGTKVEIKR
notes: Direct CDR graft of murine 120 onto the human kappa I / VH subgroup III consensus, expressed as IgG; also called graft 120
Turning to B1, binding with human STEAP-1 [1] was put at a Kd of 260 nM. The “fold loss in binding affinity” value in the assay with human STEAP-1 [2] was approximately 50 fold.

B2: anti-STEAP-1 antibody SGIV (antibody, name in Kabat numbering, V domains shown)
VH: EVQLVESGGGLVQPGGSLRLSCAVSGYSITSDYAWNWVRQAPGKGLEWVGYISNSGSTSYNPSLKSRFTISRDNSKNTLYLQMNSLRAEDTAVYYCARERNYDYDDYYYAMDYWGQGTLVTVSS
VL: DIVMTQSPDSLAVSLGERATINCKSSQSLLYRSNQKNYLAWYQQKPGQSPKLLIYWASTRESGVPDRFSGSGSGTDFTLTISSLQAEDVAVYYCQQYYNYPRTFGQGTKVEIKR
notes: Described as a revised light chain variant of the 120.v24 antibody, expressed as IgG; also called Simmons IV; SGIV variant
Turning to B2, the Kd (commonly a measure of binding affinity in units of concentration) with human STEAP-1 [3] amounted to 2.1 nM; with human STEAP-1 [4], 2.3 nM; in the assay with human STEAP-1 [5], 2.8 nM; with human STEAP-1 [6], 1.9 nM; in the assay with human STEAP-1 [7] it was 2.8 nM; with human STEAP-1 [8] it was 2.7 nM.

B3: 120v.78 (antibody, name in Kabat numbering, V domains shown)
VH: EVQLVESGGGLVQPGGSLRLSCAASGYSITSDYAWNWVRQAPGKGLEWVGYISNSGSTSYNPSLKSRFTISRDNSKNTFYLQMNSLRAEDTAVYYCARERNYDYDDYYYAMDYWGQGTLVTVSS
VL: DIQMTQSPSSLSASVGDRVTITCKSSQSLLYRSNQKNYLAWYQQKPGKAPKLLIYWASTRESGVPSRFSGSGSGTDFTLTISSLQPEDFATYYCQQYYNYPRTFGQGTKVEIKR
For the molecule B3, the Kd with human STEAP-1 [1] is 36 nM.

B4: humanized anti-STEAP-1 120v.24 (IgG) (antibody, name in Kabat numbering, V domains shown)
VH: EVQLVESGGGLVQPGGSLRLSCAVSGYSITSDYAWNWVRQAPGKGLEWVGYISNSGSTSYNPSLKSRFTISRDNSKNTLYLQMNSLRAEDTAVYYCARERNYDYDDYYYAMDYWGQGTLVTVSS
VL: DIQMTQSPSSLSASVGDRVTITCKSSQSLLYRSNQKNYLAWYQQKPGKAPKLLIYWASTRESGVPSRFSGSGSGTDFTLTISSLQPEDFATYYCQQYYNYPRTFGQGTKVEIKR
notes: also called humanized 120.v24; humanized version 24
For the molecule B4, the binding result with mouse STEAP-1 [9] is “no binding”. Besides, the “fold improvement in Kd over the 120 chimera and the original murine M2-120.545” value with human STEAP-1 [1] was found to be 2 fold. Besides, in the assay with human STEAP-1 [10], the Kd was determined as 2.2 nM and the sites per cell stood at 264000 sites per cell. Besides, the “fold binding affinity relative to the SGIV variant” value in the assay with human STEAP-1 [11] was approximately 1.5 fold. Besides, the binding result in [12] is reported as “binds”.

B5: Original Thio 120V24 (antibody, V domains shown)
VH: EVQLVESGGGLVQPGGSLRLSCAVSGYSITSDYAWNWVRQAPGKGLEWVGYISNSGSTSYNPSLKSRFTISRDNSKNTLYLQMNSLRAEDTAVYYCARERNYDYDDYYYAMDYWGQGTLVTVSS
VL: DIQMTQSPSSLSASVGDRVTITCKSSQSLLYRSNQKNYLAWYQQKPGKAPKLLIYWASTRESGVPSRFSGSGSGTDFTLTISSLQPEDFATYYCQQYYNYPRTFGQGTKVEIK
modifications: One engineered free cysteine per chain pair, taken to lie in a constant region and so not in these letters. paragraph 175 calls the antibody a thio-LC variant (V205C Kabat). The site for lot PUR 12813 is not stated at the results.
notes: also called orig thio (PUR 12813); Thio Mab
As for B5, the Kd in the assay with human STEAP-1 [3] turned out to be 1.4 nM; in the assay with human STEAP-1 [13], 1.7 nM; with human STEAP-1 [14] it was 1.7 nM; in assay [15] it was 1.1 nM; with human STEAP-1 [16], 1.1 nM; with human STEAP-1 [17], 2 nM. Also, the values for the Kd with human STEAP-1 [5] and with human STEAP-1 [18] were 1.9 nM and 1.4 nM, respectively.

B6: murine anti-STEAP-1 MAb 120.545 (antibody, V domains shown)
VH: DVQVQESGPGLVKPSQSLSLTCTVTGYSITSDYAWNWIRQFPGNKLEWMGYISNSGSTSYNPSLKSRISITRDTSKNQFFLQLISVTTEDTATYYCARERNYDYDDYYYAMDYWGQGTTLTVSA
VL: DIVMSQSPSSLAVSVGEKVTMSCKSSQSLLYRSNQKNYLAWYQQKPGQSPKLLIYWASTRESGVPDRFTGSGSGTDFTLTISSVKAEDLAVYYCQQYYNYPRTFGGGTKVEIK
notes: also called murine 120
Take B6: the Kd in the assay with human STEAP-1 [10] is 4.7 nM; with human STEAP-1 [19], 17.5 nM; with human STEAP-1 [21], 1.5 nM. This molecule yielded a sites per cell with human STEAP-1 [10] of 301000 sites per cell. The binding result with mouse STEAP-1 [20] is “no binding”; in assay [12], “binds”.

B7: 120 chimera (antibody, V domains shown)
VH: DVQVQESGPGLVKPSQSLSLTCTVTGYSITSDYAWNWIRQFPGNKLEWMGYISNSGSTSYNPSLKSRISITRDTSKNQFFLQLISVTTEDTATYYCARERNYDYDDYYYAMDYWGQGTTLTVSA
VL: DIVMSQSPSSLAVSVGEKVTMSCKSSQSLLYRSNQKNYLAWYQQKPGQSPKLLIYWASTRESGVPDRFTGSGSGTDFTLTISSVKAEDLAVYYCQQYYNYPRTFGGGTKVEIK
notes: If that entry holds a murine constant part, only its variable part applies here; also called chimera 120; chimeric 120 IgG
For the molecule B7, the Kd with human STEAP-1 [10] is 4.9 nM; in the assay with human STEAP-1 [19], 9.9 nM; with human STEAP-1 [21], 0.9 nM. The sites per cell with human STEAP-1 [10] worked out at 253000 sites per cell. The binding result with mouse STEAP-1 [22] was “no binding”; in assay [12], “binds”.

These data come from patent US20090280056A1 (Genentech, published 2009).
